Reference: the supplement of paper PMC9732359
± gives the uncertainty stated by the source.

Test: protein stability index of a GFP-peptide fusion (yeast GPS) (PSI 1-4); higher = more stable; sorted into four equal gates, so the index is relative within each strain
Conditions: pdr5∆
Summary of the method: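 Tiled 17-residue peptides from yeast proteins were fused downstream of GFP on a plasmid that also expresses Cherry, and the pooled library was carried in yeast. Mid-log cultures grown in leucine-free medium were sorted into four equal gates by GFP/Cherry fluorescence ratio. Plasmids from each gate were PCR-amplified and Illumina-sequenced, and reads were assigned to strains by barcodes. Each peptide's protein stability index is the sum, over gates, of the gate's read frequency multiplied by its gate number.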

Row | Sequence | protein stability index
1 | FNYSGKDMLYSGITGEC [RET1] | 2.46 ± 0.075
2 | FPEVFQVNIRFLLHNSE [SRB8] | 1.73 ± 0.13
3 | FQDVYDLTGSEPIKEII [FAS1] | 3.02 ± 0.081
4 | FQELDSKKQRNNGSKDH [RPN9] | 2.64 ± 0.19

Same assay, conditions: san1∆

Row | Sequence | protein stability index
5 | ERVWNICLYSSFQKNSL [AAR2] | 2.18 ± 0.1
6 | ESCEDILDLKEFDRRIL [RTT102] | 3.23 ± 0.072
7 | ESDAPPKSTAPIFSFGK [YOR098C/NUP1] | 2.71 ± 0.042
8 | ESDYEPNNETSVLSSKP [SIR3] | 3.02 ± 0.11
9 | ESFPDDIPLAKALDNAC [CDC53] | 2.67 ± 0.055
10 | ESIASSNTYKEERSNNL [MCD1] | 3.25 ± 0.06
11 | ESKDLLRASFNKLSSIL [SRB4] | 1.22 ± 0.16
12 | ESLKKELQIFKTANSSS [YIL149C/MLP2] | 2.9 ± 0.059
13 | ESLPQYVDFVPMYKELW [POP4] | 2.5 ± 0.074
14 | ESNNPSHDASRSLASFE [SIR4] | 3.02 ± 0.072
15 | ESSDFGAIILTKMDGHA [SRP54] | 2.91 ± 0.11
16 | ESSELNKDSIEECGRTI [CSN12] | 3.42 ± 0.089
17 | ESYDAALSLHREILCYS [FAS2] | 2.28 ± 0.028
18 | ETAKKITFHPKIRARSI [SMC2] | 2.92 ± 0.045
19 | ETAQAINGWELTKAQKY [RPL17A] | 3.18 ± 0.034
20 | ETDHKTNENGETDDNIE [SRB4] | 3.08 ± 0.083
21 | ETEIKDLTQLLEKERSI [SMC4] | 3.24 ± 0.051
22 | ETEQEYSPSNEISISFD [YDL116W/NUP84] | 2.52 ± 0.059
23 | ETIENVKLQMIKFGGLI [ECM29] | 3.18 ± 0.11
24 | ETLENGETRMKMLNEFV [SMC2] | 3.17 ± 0.15
25 | ETLGLKYLGLKPGSIDA [FAS1] | 3.03 ± 0.076
26 | ETQVLVSTPEKWDITTR [BRR2] | 3.31 ± 0.053
27 | ETVAKSKNAERKWAARA [RPS8A] | 3.196 ± 0.018
28 | EVAKRLVELMFIRSTNS [FAS1] | 2.5 ± 0.085
29 | EVEKAHPIRLYTRYLDR [PRP8] | 2.35 ± 0.078

Row | Sequence | protein stability index
30 | EVFSVLGIEAARYSIIR [RPO31] | 1.43 ± 0.25
31 | EVHDLIGFITSGTYHLN [POP1] | 2.11 ± 0.13
32 | EVKTPKIPLFTFAKSKN [SIR4] | 2.57 ± 0.043
33 | EVLVTPGLEFLDDTTIP [MCD1] | 3.25 ± 0.037
34 | EVQFGLFSPEEVRAISV [RPO21] | 3 ± 0.045
35 | EVSGSIQYKKEYEELKE [SMC1] | 3.29 ± 0.089
36 | EVSKDLIAVYYSFGGLL [RPB8] | 2.46 ± 0.079
37 | EVVKSLYDRPLKPDLNK [NAS6] | 2.85 ± 0.18
38 | EVYKAEKDAVSVFGFRT [RPS24A] | 3.36 ± 0.07
39 | EYIDDHRSGKIVVQLNG [RPS22A] | 2.77 ± 0.13
40 | EYRPFSKKVLECLPAEG [DIS3] | 1.46 ± 0.1
41 | EYSRDCFCEDHCDKCSV [RPB3] | 3.24 ± 0.18
42 | FAAILVLLVLPFTDRSV [COB] | 1.54 ± 0.15
43 | FAALSDSYGQGSMTKTW [SSN2] | 3.23 ± 0.1
44 | FAESPFFDKTSNNQVIK [MED6] | 2.71 ± 0.076
45 | FAEYIQANIQLYSIRED [PRE1] | 2.49 ± 0.068
46 | FAFLNAMFFGNYGSSLQ [AAR2] | 2.91 ± 0.072
47 | FAKEKLTKKEKKEANLF [RPL6A] | 3.19 ± 0.073
48 | FAKQVDVQLERVADEDA [IRR1] | 2.76 ± 0.26
49 | FAQPVADIENSTSGDPS [SSN2] | 2.9 ± 0.16
50 | FCRDCNNMLYPREDKEN [RPB9] | 2.9 ± 0.064
51 | FDDLEVEELPTFHDYDM [RRP42] | 2.79 ± 0.043
52 | FDKLLNIPRRELKINLP [SRB4] | 2.74 ± 0.071
53 | FDPSKDVLINELLDQVT [CDC53] | 2.24 ± 0.087
54 | FDSLIKVQISKIPILAQ [RPN9] | 2.59 ± 0.094

Row | Sequence | protein stability index
55 | FDTDWNPHQDLQAQDRA [SNF2] | 2.94 ± 0.037
56 | FDVNTLCLMTWKEVMFD [CDC53] | 2.81 ± 0.11
57 | FELVHHFFQIDGFNKTF [YML103C/NUP188] | 2.42 ± 0.074
58 | FENVKLLAEYDNIYRNL [MED4] | 2.62 ± 0.071
59 | FEPSISRSNFQGKHTKF [LRP1] | 2.97 ± 0.14
60 | FEYCRIDGSTSHEERIE [ISW2] | 2.01 ± 0.061
61 | FFDPKPFDQNLDSNNNN [SWI1] | 3.14 ± 0.048
62 | FFSSDWRFLQILRNGID [POP1] | 2.5 ± 0.1
63 | FGANQATNTFGSNQQSS [YGR119C/NUP57] | 3.2 ± 0.12
64 | FGSRVMIAKEVKTSPDA [FAS1] | 2.81 ± 0.27
65 | FHESGSQYSTMVNIGLH [RGR1] | 2.7 ± 0.18
66 | FHFAIEQISNNSNQQQN [SIN4] | 2.74 ± 0.066
67 | FHIDHTKPSDLTIKDIV [RPO21] | 2.56 ± 0.059
68 | FHSAVENLVQGNGNVSE [YCG1] | 3.23 ± 0.069
69 | FILIPLYKIFSYALSME [SNU114] | 1.46 ± 0.075
70 | FIRDELDENKWYKFNDD [UBP6] | 1.94 ± 0.096
71 | FIRKYINQKALRKIQAL [GAL11] | 1.79 ± 0.23
72 | FITTLLKSLYSFFNISP [SIN4] | 1.46 ± 0.057
73 | FKDETISKKIIGMSLLM [SIR3] | 2.78 ± 0.068
74 | FKLQEEERERKDQYVPE [RPS17A] | 3.4 ± 0.061
75 | FKSALANLEDIIFEIEK [RRP6] | 3.2 ± 0.071
76 | FKVARELKTEAAVLSNL [ITC1] | 2.9 ± 0.089
77 | FLANHKDRLYCGKCHSV [RPS31] | 2.02 ± 0.16
78 | FLDGIYVSHKGFIVEDM [RPL9B] | 2.74 ± 0.087
79 | FLIHSGQPVNDFIDTAT [RPS3] | 3.09 ± 0.05

Row | Sequence | protein stability index
80 | FLIKASVREINLYMLVT [SSN8] | 1.89 ± 0.091
81 | FLKDADVECIKAKSHFT [YJL039C/NUP192] | 2.91 ± 0.089
82 | FLLHNSEIIDTNTSKQF [SRB8] | 2.85 ± 0.055
83 | FLLNQNKQLSQSVEEKV [YIL149C/MLP2] | 1.77 ± 0.14
84 | FLNNGEVDSASDFISKL [RPN3] | 2.8 ± 0.27
85 | FLQKFEIAFHLTLIFYD [YML103C/NUP188] | 1.41 ± 0.12
86 | FLRKATAFNKTRGPFHF [RPL16B] | 2.78 ± 0.043
87 | FLRQKICLMTLIETVFV [RPN9] | 1.06 ± 0.14
88 | FLRTMKLTSEETVFNYR [GRR1] | 3 ± 0.06
89 | FMSNDGPTLEKYISAEL [SNU114] | 3.03 ± 0.054
90 | FMVRLDSEKHIDFAPTS [RPS9A] | 2.72 ± 0.05
91 | FNAIDLARHLPAELDLR [RPC82] | 2.29 ± 0.083
92 | FNEDQLFSLLELGEQKC [RRP46] | 2.61 ± 0.071
93 | FNGADIRNCATEAGFFA [RPT4] | 3.3 ± 0.057
94 | FNGLKPLIQNSMRTIMK [PRP8] | 2.15 ± 0.17
95 | FNIIREFRSAAGQLALD [YDL116W/NUP84] | 2.94 ± 0.076
96 | FNKTTNIDINNEDENIQ [YJL041W/NSP1] | 3.09 ± 0.056
97 | FNNEAPPQTRKFQPPPG [SMB1] | 3.01 ± 0.075
98 | FNPYGDNGGTILGIAGE [PRE7] | 3.24 ± 0.16
99 | FNSVQKKSRSNLSQEND [YAR002W/NUP60] | 2.49 ± 0.1
100 | FNTQQGIKKHSLWRRTV [YDL116W/NUP84] | 2.77 ± 0.048
101 | FNVEYFAKEKLTKKEKK [RPL6A] | 1.44 ± 0.12
102 | FNYSGKDMLYSGITGEC [RET1] | 2.19 ± 0.12
